{"source": "patent US20080009025A1", "about": "“PROTEIN KINASE REGULATION” (priority 1999, published 2008)", "molecules": {"B1": {"name": "K115A: PDK1 mutant, Lys115 to Ala in the PIF-binding pocket (protein)", "chain": "MARTTSQLYDAVPIQSSVVLCSCPSPSMVRTQTESSTPPGIPGGSRQGPAMDGTAAEPRPGAGSLQHAQPPPQPRKKRPEDFKFGKILGEGSFSTVVLARELATSREYAIKILEARHIIKENKVPYVTRERDVMSRLDHPFFVKLYFTFQDDEKLYFGLSYAKNGELLKYIRKIGSFDETCTRFYTAEIVSALEYLHGKGIIHRDLKPENILLNEDMHIQITDFGTAKVLSPESKQARANSFVGTAQYVSPELLTEKSACKSSDLWALGCIIYQLVAGLPPFRAGNEYLIFQKIIKLEYDFPEKFFPKARDLVEKLLVLDATKRLGCEEMEGYGPLKAHPFFESVTWENLHQQTPPKLTAYLPAMSEDDEDCYGNYDNLLSQFGCMQVSSSSSSHSLSASDTGLPQRSGSNIEQYIHDLDSNSFELDLQFSEDEKRLLLEKQAGGNPWHQFVENNLILKMGPVDKRKGLFARRRQLLLTEGPHLYYVDPVNKVLKGEIPWSQELRPEAKNFKTFFVHTPNRTYYLMDPSGNAHKWCRKIQEVWRQRYQSHPDAAVQ", "modifications": "left off: small tags and cut ends"}, "B2": {"name": "Q150A: PDK1 mutant, Gln150 to Ala (protein)", "chain": "MARTTSQLYDAVPIQSSVVLCSCPSPSMVRTQTESSTPPGIPGGSRQGPAMDGTAAEPRPGAGSLQHAQPPPQPRKKRPEDFKFGKILGEGSFSTVVLARELATSREYAIKILEKRHIIKENKVPYVTRERDVMSRLDHPFFVKLYFTFADDEKLYFGLSYAKNGELLKYIRKIGSFDETCTRFYTAEIVSALEYLHGKGIIHRDLKPENILLNEDMHIQITDFGTAKVLSPESKQARANSFVGTAQYVSPELLTEKSACKSSDLWALGCIIYQLVAGLPPFRAGNEYLIFQKIIKLEYDFPEKFFPKARDLVEKLLVLDATKRLGCEEMEGYGPLKAHPFFESVTWENLHQQTPPKLTAYLPAMSEDDEDCYGNYDNLLSQFGCMQVSSSSSSHSLSASDTGLPQRSGSNIEQYIHDLDSNSFELDLQFSEDEKRLLLEKQAGGNPWHQFVENNLILKMGPVDKRKGLFARRRQLLLTEGPHLYYVDPVNKVLKGEIPWSQELRPEAKNFKTFFVHTPNRTYYLMDPSGNAHKWCRKIQEVWRQRYQSHPDAAVQ", "modifications": "left off: small tags and cut ends", "notes": "PDK1 mutant, Gln150 to Ala"}, "B3": {"name": "I119A: PDK1 mutant, Ile119 to Ala (protein)", "chain": "MARTTSQLYDAVPIQSSVVLCSCPSPSMVRTQTESSTPPGIPGGSRQGPAMDGTAAEPRPGAGSLQHAQPPPQPRKKRPEDFKFGKILGEGSFSTVVLARELATSREYAIKILEKRHIAKENKVPYVTRERDVMSRLDHPFFVKLYFTFQDDEKLYFGLSYAKNGELLKYIRKIGSFDETCTRFYTAEIVSALEYLHGKGIIHRDLKPENILLNEDMHIQITDFGTAKVLSPESKQARANSFVGTAQYVSPELLTEKSACKSSDLWALGCIIYQLVAGLPPFRAGNEYLIFQKIIKLEYDFPEKFFPKARDLVEKLLVLDATKRLGCEEMEGYGPLKAHPFFESVTWENLHQQTPPKLTAYLPAMSEDDEDCYGNYDNLLSQFGCMQVSSSSSSHSLSASDTGLPQRSGSNIEQYIHDLDSNSFELDLQFSEDEKRLLLEKQAGGNPWHQFVENNLILKMGPVDKRKGLFARRRQLLLTEGPHLYYVDPVNKVLKGEIPWSQELRPEAKNFKTFFVHTPNRTYYLMDPSGNAHKWCRKIQEVWRQRYQSHPDAAVQ", "modifications": "left off: small tags and cut ends", "notes": "PDK1 mutant, Ile119 to Ala"}, "B4": {"name": "L155A: PDK1 mutant, Leu155 to Ala (protein)", "chain": "MARTTSQLYDAVPIQSSVVLCSCPSPSMVRTQTESSTPPGIPGGSRQGPAMDGTAAEPRPGAGSLQHAQPPPQPRKKRPEDFKFGKILGEGSFSTVVLARELATSREYAIKILEKRHIIKENKVPYVTRERDVMSRLDHPFFVKLYFTFQDDEKAYFGLSYAKNGELLKYIRKIGSFDETCTRFYTAEIVSALEYLHGKGIIHRDLKPENILLNEDMHIQITDFGTAKVLSPESKQARANSFVGTAQYVSPELLTEKSACKSSDLWALGCIIYQLVAGLPPFRAGNEYLIFQKIIKLEYDFPEKFFPKARDLVEKLLVLDATKRLGCEEMEGYGPLKAHPFFESVTWENLHQQTPPKLTAYLPAMSEDDEDCYGNYDNLLSQFGCMQVSSSSSSHSLSASDTGLPQRSGSNIEQYIHDLDSNSFELDLQFSEDEKRLLLEKQAGGNPWHQFVENNLILKMGPVDKRKGLFARRRQLLLTEGPHLYYVDPVNKVLKGEIPWSQELRPEAKNFKTFFVHTPNRTYYLMDPSGNAHKWCRKIQEVWRQRYQSHPDAAVQ", "modifications": "left off: a dimerising Fc or GST; small tags and cut ends", "notes": "PDK1 mutant, Leu155 to Ala"}}, "key": {"[1]": {"system": "S6K1[412E]", "experiment": "Activation of S6K1[412E] by PDK1 PIF pocket mutants", "type": "biochemical, human", "protocol": "(§1) FIG. 20. Effect of PIFtide on the activation of S6K1 and SGK1 by PDK1 PIF pocket mutants (155A, 115A, 119A, 150A). GST-PDK1, GST-PDK1 L155E, 155A, 115A, 119A and 150A were tested for their ability to activate His-S6K1 412E and GST-SGK1 422D. The phosphorylation and activation of substrates was performed as described in FIG. 17. When PIFtide was included in the reaction, it was pre-incubated on ice for ˜15 min until the reaction was initiated with the addition of ATP-Mg.\n(§2) Activation of AGC kinase PDK1 substrates. Phosphorylation reactions were carried out as above except that non-radioactive ATP replaced [γ-^32P]ATP. Following 10 min at 30° C., cocktail (30 μl) containing 50 mM Tris-HCl pH 7.5, 0.1% (by vol) 2-mercaptoethanol, 10 mM magnesium chloride, […], 0.5 μM microcystin-LR and 100 μM peptide substrate crosstide (GRPRTSSFAEG) and [γ-^32P]ATP (˜600 c.p.m./pmol). Reactions were stopped by the addition of 25 μl of 0.2 M EDTA pH 8.0, spotted onto P81 phosphocellulose paper, washed and analysed as described for the assay of MAP kinase. The amount of PDK1 was in the assay was varied so that the assay was in the linear range. One unit of activity is deficed as phosphorylation 1 nmol of substrate in 1 min."}, "[2]": {"system": "SGK1[T422D]", "experiment": "Activation of SGK1[T422D] by PDK1 PIF pocket mutants", "type": "biochemical", "protocol": "as §1, §2"}}, "data": [{"molecule": "B1", "values": [{"measurement": "rate of activation of S6K1[412E] compared with wild type PDK1", "setting": "[1]", "value": "only marginally lower"}, {"measurement": "rate of activation of SGK1[T422D] compared with wild type PDK1", "setting": "[2]", "value": "markedly reduced"}]}, {"molecule": "B2", "values": [{"measurement": "rate of activation of S6K1[412E] compared with wild type PDK1", "setting": "[1]", "value": "only marginally lower"}, {"measurement": "rate of activation of SGK1[T422D] compared with wild type PDK1", "setting": "[2]", "value": "markedly reduced"}]}, {"molecule": "B3", "values": [{"measurement": "rate of activation of S6K1[412E] compared with wild type PDK1", "setting": "[1]", "value": "only marginally lower"}, {"measurement": "rate of activation of SGK1[T422D] compared with wild type PDK1", "setting": "[2]", "value": "markedly reduced"}]}, {"molecule": "B4", "values": [{"measurement": "rate of activation of S6K1[412E] compared with wild type PDK1", "setting": "[1]", "value": "only marginally lower"}, {"measurement": "rate of activation of SGK1[T422D] compared with wild type PDK1", "setting": "[2]", "value": "markedly reduced"}]}]}
